Experimental data as given in the supplement of paper PMC9112550, “Optimization of the antimicrobial peptide Bac7 by deep mutational scanning” (BMC Biology, 2022).

System: Escherichia coli TOP10
Assay: shrunken log2 fold change of peptide-encoding DNA abundance (4.5 h post-induction vs induction); higher = less antimicrobial activity (less host growth inhibition)
Settings: time post-induction: 4.5 h; library: site-saturation at positions 5, 18, 19, 20
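Also: peptides expressed intracellularly from a pBAD plasmid library in pooled LB shake-flask culture, induced with 0.3% L-arabinose, DNA abundance read by NGS, three biological replicates, DESeq2 with apeglm shrinkage.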

Sequence	shrunken log2 fold change
RRIRSRPPRLPRPRPRPGYGPRP	-0.0163
RRIRLRPPRLPRPRPRPLLHPRP	-0.0703
RRIRGRPPRLPRPRPRPRNWPRP	1.35
RRIRERPPRLPRPRPRPRITPRP	-0.578
RRIRDRPPRLPRPRPRPKIRPRP	-0.0266
RRIRGRPPRLPRPRPRPQLSPRP	0.0797
RRIRQRPPRLPRPRPRPHVCPRP	-0.0223
RRIRFRPPRLPRPRPRPGWAPRP	0.187
RRIRFRPPRLPRPRPRPWFFPRP	-0.393
RRIRNRPPRLPRPRPRPAQSPRP	0.0508
RRIRQRPPRLPRPRPRPMDMPRP	-0.274
RRIRRRPPRLPRPRPRPCFIPRP	-0.127
RRIRRRPPRLPRPRPRPGTYPRP	-0.0906
RRIRNRPPRLPRPRPRPWAIPRP	-0.179
RRIRHRPPRLPRPRPRPWLLPRP	-0.397
RRIRTRPPRLPRPRPRPFHGPRP	-0.0212
RRIRDRPPRLPRPRPRPQFQPRP	-0.145
RRIRARPPRLPRPRPRPQDIPRP	-0.15
RRIRNRPPRLPRPRPRPKTRPRP	0.138
RRIRRRPPRLPRPRPRPANAPRP	0.055
RRIRMRPPRLPRPRPRPSYFPRP	-0.293
RRIRFRPPRLPRPRPRPLLTPRP	-0.166
RRIRGRPPRLPRPRPRPGDSPRP	0.276
RRIRYRPPRLPRPRPRPEVWPRP	0.446
RRIRFRPPRLPRPRPRPCVHPRP	0.00355

Sequence	shrunken log2 fold change
RRIRKRPPRLPRPRPRPEEYPRP	0.0303
RRIRPRPPRLPRPRPRPTPGPRP	0.533
RRIRFRPPRLPRPRPRPEMFPRP	0.099
RRIRQRPPRLPRPRPRPPTGPRP	0.0124
RRIRMRPPRLPRPRPRPHWVPRP	-0.0142
RRIRCRPPRLPRPRPRPMTTPRP	0.151
RRIRGRPPRLPRPRPRPKLEPRP	0.507
RRIRNRPPRLPRPRPRPIWEPRP	-0.131
RRIRDRPPRLPRPRPRPIIMPRP	-0.226
RRIRCRPPRLPRPRPRPKFDPRP	-0.0305
RRIRHRPPRLPRPRPRPWDRPRP	-0.0232
RRIRQRPPRLPRPRPRPPPPPRP	0.822
RRIRHRPPRLPRPRPRPEHLPRP	0.0981
RRIRSRPPRLPRPRPRPKLIPRP	-0.257
RRIRFRPPRLPRPRPRPVAEPRP	0.256
RRIRPRPPRLPRPRPRPEISPRP	-0.00759
RRIRPRPPRLPRPRPRPCAPPRP	0.159
RRIRPRPPRLPRPRPRPGTGPRP	-0.0651
RRIRLRPPRLPRPRPRPYRQPRP	-0.0238
RRIRKRPPRLPRPRPRPYRKPRP	0.0413
RRIRERPPRLPRPRPRPNGHPRP	0.0479
RRIRKRPPRLPRPRPRPTHPPRP	0.932
RRIRYRPPRLPRPRPRPPGTPRP	-0.146
RRIRHRPPRLPRPRPRPQDWPRP	0.0899
RRIRFRPPRLPRPRPRPVEEPRP	-0.177

Sequence	shrunken log2 fold change
RRIRVRPPRLPRPRPRPGGRPRP	0.317
RRIRSRPPRLPRPRPRPEWWPRP	0.0594
RRIRRRPPRLPRPRPRPMVRPRP	0.276
RRIRMRPPRLPRPRPRPLGRPRP	0.723
RRIRIRPPRLPRPRPRPYDFPRP	0.126
RRIRTRPPRLPRPRPRPHFRPRP	-0.284
RRIRHRPPRLPRPRPRPRCQPRP	0.219
RRIRQRPPRLPRPRPRPKKYPRP	-0.0221
RRIRRRPPRLPRPRPRPLYNPRP	-0.295
RRIRNRPPRLPRPRPRPRGFPRP	0.443
RRIRQRPPRLPRPRPRPWCSPRP	-0.0146
RRIRDRPPRLPRPRPRPCQGPRP	0.028
RRIRTRPPRLPRPRPRPICSPRP	-0.0969
RRIRCRPPRLPRPRPRPPQDPRP	1.08
RRIRNRPPRLPRPRPRPYKLPRP	-0.66
RRIRGRPPRLPRPRPRPAWKPRP	0.122
RRIRQRPPRLPRPRPRPFMAPRP	-0.61
RRIRARPPRLPRPRPRPLIIPRP	-0.415
RRIRVRPPRLPRPRPRPQTNPRP	-0.0562
RRIRNRPPRLPRPRPRPQFKPRP	-0.3
RRIRHRPPRLPRPRPRPLRRPRP	0.3
RRIRFRPPRLPRPRPRPCINPRP	-0.0523
RRIRFRPPRLPRPRPRPIRHPRP	-0.355
RRIRWRPPRLPRPRPRPTPCPRP	0.212
RRIRCRPPRLPRPRPRPMVKPRP	-0.228

Sequence	shrunken log2 fold change
RRIRVRPPRLPRPRPRPWHNPRP	-0.49
RRIRGRPPRLPRPRPRPYKGPRP	-0.236
RRIRTRPPRLPRPRPRPEIAPRP	-0.11
RRIRARPPRLPRPRPRPAYVPRP	-0.118
RRIRLRPPRLPRPRPRPILTPRP	-0.281
RRIRYRPPRLPRPRPRPAGMPRP	-0.0428
RRIRVRPPRLPRPRPRPVEKPRP	0.265
RRIRRRPPRLPRPRPRPHHYPRP	-0.168
RRIRHRPPRLPRPRPRPLDMPRP	-0.0339
RRIRIRPPRLPRPRPRPNITPRP	-0.726
RRIRPRPPRLPRPRPRPGFAPRP	0.318
RRIRARPPRLPRPRPRPIKEPRP	-0.0357
RRIRWRPPRLPRPRPRPYAKPRP	-0.41
RRIRKRPPRLPRPRPRPMYAPRP	-0.145
RRIRIRPPRLPRPRPRPSSSPRP	0.148
RRIRVRPPRLPRPRPRPQDMPRP	-0.736
RRIRLRPPRLPRPRPRPDRYPRP	-0.063
RRIRTRPPRLPRPRPRPTHEPRP	0.746
RRIRIRPPRLPRPRPRPDNYPRP	-0.199
RRIRYRPPRLPRPRPRPWYHPRP	-0.0547
RRIRGRPPRLPRPRPRPPHNPRP	0.585
RRIRLRPPRLPRPRPRPSPSPRP	-0.218
RRIRSRPPRLPRPRPRPRDSPRP	-0.158
RRIRYRPPRLPRPRPRPNDGPRP	-0.0117
RRIRRRPPRLPRPRPRPMSLPRP	-0.0564

Sequence	shrunken log2 fold change
RRIRGRPPRLPRPRPRPHTCPRP	0.104
RRIRARPPRLPRPRPRPNNEPRP	-0.14
RRIRSRPPRLPRPRPRPYHSPRP	-0.181
RRIRARPPRLPRPRPRPPYPPRP	0.256
RRIRRRPPRLPRPRPRPFWIPRP	0.0724
RRIRCRPPRLPRPRPRPDTVPRP	-0.369
RRIRWRPPRLPRPRPRPHGAPRP	0.0287
RRIRCRPPRLPRPRPRPSYLPRP	-1
RRIRFRPPRLPRPRPRPMWAPRP	0.0936
RRIRQRPPRLPRPRPRPIAEPRP	-0.103
RRIRLRPPRLPRPRPRPWISPRP	0.0832
RRIRIRPPRLPRPRPRPWINPRP	-0.379
RRIRFRPPRLPRPRPRPNNYPRP	-0.539
RRIRHRPPRLPRPRPRPMRIPRP	-0.00172
RRIRARPPRLPRPRPRPNVTPRP	0.17
RRIRDRPPRLPRPRPRPDGIPRP	-0.0113
RRIRRRPPRLPRPRPRPDDKPRP	0.0703
RRIRNRPPRLPRPRPRPFAMPRP	-0.177
RRIRFRPPRLPRPRPRPWFQPRP	-0.285
RRIRIRPPRLPRPRPRPAPIPRP	-0.0266
RRIRPRPPRLPRPRPRPNRSPRP	0.16
RRIRCRPPRLPRPRPRPCKQPRP	-0.0357
RRIRHRPPRLPRPRPRPSGEPRP	-0.03
RRIRNRPPRLPRPRPRPSLWPRP	0.159
RRIRARPPRLPRPRPRPCLTPRP	0.158
